Assay results: patent US20100081620A1
Where two headings read alike, the source gives them in different places. Values belong to the substance of their own block, whether it stands above or below them.

Tests used:
[1] = target: ADAM 10 on IMPE cells; experiment: cell-based or functional assay
[2] = target: ADAM 10 protein on Ramos cells, U937 cells and B cells; experiment: cell-based or functional assay
[3] = target: mouse ADAM 10 catalytic domain (mouse) (UniProt O35598); experiment: enzyme inhibition ('unpublished observation')
[4] = target: Human ADAM10 protease containing the catalytic/disintegrin domains (human) (UniProt O14672); experiment: enzyme inhibition, fluorescent peptide substrate
[5] = target: Human TACE protease containing the catalytic/disintegrin domains (human) (UniProt P78536); experiment: enzyme inhibition, fluorescent peptide substrate
[6] = target: MMP 13; experiment: enzyme inhibition, fluorescent peptide substrate
[7] = target: MMP 14; experiment: enzyme inhibition, fluorescent peptide substrate
[8] = target: MMP 1; experiment: enzyme inhibition, fluorescent peptide substrate
[9] = target: MMP 2; experiment: enzyme inhibition, fluorescent peptide substrate
[10] = target: MMP 3; experiment: enzyme inhibition, fluorescent peptide substrate
[11] = target: MMP 9; experiment: enzyme inhibition, fluorescent peptide substrate
[12] = target: TACE catalytic domain (human) (human) (UniProt P78536); experiment: enzyme inhibition, fluorescent peptide substrate
[13] = target: human ADAM 9 catalytic/disintegrin domains (human) (UniProt Q13443); experiment: enzyme inhibition, fluorescent peptide substrate
[14] = target: human ADAM 9 catalytic/disintegrin domains (human) (UniProt Q13443); experiment: enzyme inhibition, fluorescent peptide substrate; remark: listed apart in the source
[15] = target: T1, ADAM 8 catalytic domain (mouse) (mouse) (UniProt Q05910); experiment: enzyme inhibition, fluorescamine assay with Dnp peptide substrate
T1 sequence (looked up): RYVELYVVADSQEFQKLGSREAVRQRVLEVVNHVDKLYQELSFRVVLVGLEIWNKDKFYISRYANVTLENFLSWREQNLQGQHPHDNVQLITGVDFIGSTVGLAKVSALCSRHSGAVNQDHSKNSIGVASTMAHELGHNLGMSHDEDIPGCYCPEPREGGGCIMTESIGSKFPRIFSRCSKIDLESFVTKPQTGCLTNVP

[16] = target: Human TACE protease containing the catalytic/disintegrin domains (human) (UniProt P78536); experiment: cell-based or functional assay

Chain of human ADAM 9 catalytic/disintegrin domains (human) (Q13443 206-697 limits assumed): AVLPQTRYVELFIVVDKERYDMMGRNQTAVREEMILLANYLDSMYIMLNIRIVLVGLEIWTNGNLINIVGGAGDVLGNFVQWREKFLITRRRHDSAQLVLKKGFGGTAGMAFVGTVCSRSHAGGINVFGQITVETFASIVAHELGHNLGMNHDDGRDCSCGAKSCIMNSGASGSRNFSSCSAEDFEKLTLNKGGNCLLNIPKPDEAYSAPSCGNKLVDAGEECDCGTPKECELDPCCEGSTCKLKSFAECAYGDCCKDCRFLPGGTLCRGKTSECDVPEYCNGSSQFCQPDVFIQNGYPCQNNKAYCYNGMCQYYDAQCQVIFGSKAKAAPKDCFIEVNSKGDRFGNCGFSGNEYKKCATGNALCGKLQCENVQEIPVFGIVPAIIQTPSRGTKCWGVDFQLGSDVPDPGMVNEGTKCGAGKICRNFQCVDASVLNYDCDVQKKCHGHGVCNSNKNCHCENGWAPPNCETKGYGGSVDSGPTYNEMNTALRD
Chain of Human TACE protease containing the catalytic/disintegrin domains (human) (P78536 215-671 limits assumed): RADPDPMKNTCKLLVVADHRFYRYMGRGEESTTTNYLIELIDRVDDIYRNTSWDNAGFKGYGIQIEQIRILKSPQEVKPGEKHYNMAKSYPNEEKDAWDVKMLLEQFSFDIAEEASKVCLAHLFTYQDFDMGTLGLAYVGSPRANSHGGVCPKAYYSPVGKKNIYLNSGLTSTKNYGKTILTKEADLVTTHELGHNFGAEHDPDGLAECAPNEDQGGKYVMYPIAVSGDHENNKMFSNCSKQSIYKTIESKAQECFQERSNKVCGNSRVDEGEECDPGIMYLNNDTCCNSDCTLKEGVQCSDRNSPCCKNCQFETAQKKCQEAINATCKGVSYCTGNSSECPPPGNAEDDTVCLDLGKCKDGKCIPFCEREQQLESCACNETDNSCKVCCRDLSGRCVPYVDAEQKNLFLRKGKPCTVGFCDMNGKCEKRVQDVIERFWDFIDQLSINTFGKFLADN
Chain of TACE catalytic domain (human) (human) (P78536 215-477 limits assumed): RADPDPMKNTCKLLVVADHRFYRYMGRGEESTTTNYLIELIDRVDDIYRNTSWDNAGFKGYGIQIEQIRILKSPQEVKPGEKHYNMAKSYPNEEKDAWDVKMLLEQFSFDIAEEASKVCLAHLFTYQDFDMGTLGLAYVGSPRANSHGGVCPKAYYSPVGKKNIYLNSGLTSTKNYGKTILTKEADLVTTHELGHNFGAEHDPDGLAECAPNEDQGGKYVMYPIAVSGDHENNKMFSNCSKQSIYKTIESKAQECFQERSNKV
Chain of MMP 2 (P08253 110-660): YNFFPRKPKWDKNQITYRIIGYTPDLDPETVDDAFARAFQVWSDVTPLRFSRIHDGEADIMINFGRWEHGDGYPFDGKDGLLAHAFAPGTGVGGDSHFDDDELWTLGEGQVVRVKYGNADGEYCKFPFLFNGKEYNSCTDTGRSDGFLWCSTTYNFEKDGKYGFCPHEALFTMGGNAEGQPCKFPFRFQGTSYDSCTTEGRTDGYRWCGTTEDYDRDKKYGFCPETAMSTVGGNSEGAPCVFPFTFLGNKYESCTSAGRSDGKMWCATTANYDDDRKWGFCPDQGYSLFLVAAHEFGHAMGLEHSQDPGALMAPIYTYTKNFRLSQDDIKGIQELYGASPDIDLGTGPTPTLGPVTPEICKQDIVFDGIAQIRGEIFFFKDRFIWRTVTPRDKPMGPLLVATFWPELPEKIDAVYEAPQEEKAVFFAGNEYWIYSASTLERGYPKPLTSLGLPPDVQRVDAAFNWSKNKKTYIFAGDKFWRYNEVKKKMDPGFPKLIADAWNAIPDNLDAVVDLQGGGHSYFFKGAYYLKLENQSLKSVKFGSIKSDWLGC
Chain of mouse ADAM 10 catalytic domain (mouse) (O35598 215-457 limits assumed): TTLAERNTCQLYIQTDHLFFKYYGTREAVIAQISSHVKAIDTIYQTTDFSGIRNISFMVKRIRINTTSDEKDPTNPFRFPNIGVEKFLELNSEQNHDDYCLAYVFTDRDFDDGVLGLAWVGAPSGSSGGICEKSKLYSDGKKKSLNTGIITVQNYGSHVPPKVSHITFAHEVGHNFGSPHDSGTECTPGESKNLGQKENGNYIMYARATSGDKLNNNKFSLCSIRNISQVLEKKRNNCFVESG
Chain of MMP 3 (P08254 100-477): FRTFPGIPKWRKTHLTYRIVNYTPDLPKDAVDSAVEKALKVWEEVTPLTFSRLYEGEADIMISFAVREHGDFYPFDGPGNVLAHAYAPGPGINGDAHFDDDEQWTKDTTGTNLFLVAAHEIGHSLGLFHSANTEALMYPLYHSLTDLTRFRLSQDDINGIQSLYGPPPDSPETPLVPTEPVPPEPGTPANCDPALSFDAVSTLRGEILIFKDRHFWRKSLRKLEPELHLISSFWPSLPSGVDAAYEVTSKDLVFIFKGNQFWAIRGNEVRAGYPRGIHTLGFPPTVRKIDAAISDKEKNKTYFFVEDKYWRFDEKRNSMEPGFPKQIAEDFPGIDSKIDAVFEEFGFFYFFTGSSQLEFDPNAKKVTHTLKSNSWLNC
Chain of Human ADAM10 protease containing the catalytic/disintegrin domains (human) (O14672 214-672 limits assumed): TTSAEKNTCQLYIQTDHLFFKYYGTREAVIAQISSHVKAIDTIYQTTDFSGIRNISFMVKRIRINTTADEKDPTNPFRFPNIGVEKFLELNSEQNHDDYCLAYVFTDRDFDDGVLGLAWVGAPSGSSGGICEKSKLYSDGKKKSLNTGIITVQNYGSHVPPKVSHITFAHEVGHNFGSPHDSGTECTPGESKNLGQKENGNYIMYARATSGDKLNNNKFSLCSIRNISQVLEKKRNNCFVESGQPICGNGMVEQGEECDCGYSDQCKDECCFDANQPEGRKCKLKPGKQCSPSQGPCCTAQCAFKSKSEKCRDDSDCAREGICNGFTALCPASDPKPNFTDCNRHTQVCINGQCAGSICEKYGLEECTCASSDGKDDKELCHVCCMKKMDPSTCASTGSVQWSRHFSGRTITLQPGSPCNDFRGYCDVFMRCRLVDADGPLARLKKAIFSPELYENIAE
Chain of MMP 9 (P14780 107-707): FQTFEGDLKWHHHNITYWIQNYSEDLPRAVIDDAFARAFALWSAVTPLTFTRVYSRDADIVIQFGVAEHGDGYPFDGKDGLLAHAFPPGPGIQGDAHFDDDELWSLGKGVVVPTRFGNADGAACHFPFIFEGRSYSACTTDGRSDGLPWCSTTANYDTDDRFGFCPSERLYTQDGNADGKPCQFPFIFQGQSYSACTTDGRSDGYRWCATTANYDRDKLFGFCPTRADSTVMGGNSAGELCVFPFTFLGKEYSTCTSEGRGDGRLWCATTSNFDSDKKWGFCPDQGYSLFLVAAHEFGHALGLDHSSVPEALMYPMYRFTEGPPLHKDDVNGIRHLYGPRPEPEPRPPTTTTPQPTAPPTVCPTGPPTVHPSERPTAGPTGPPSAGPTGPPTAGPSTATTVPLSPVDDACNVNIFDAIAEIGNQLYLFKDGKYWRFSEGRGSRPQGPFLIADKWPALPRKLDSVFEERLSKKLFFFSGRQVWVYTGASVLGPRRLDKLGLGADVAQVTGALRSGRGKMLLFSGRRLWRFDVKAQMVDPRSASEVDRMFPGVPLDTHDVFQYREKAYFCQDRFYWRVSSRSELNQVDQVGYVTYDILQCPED
Chain of MMP 1 (P03956 100-469): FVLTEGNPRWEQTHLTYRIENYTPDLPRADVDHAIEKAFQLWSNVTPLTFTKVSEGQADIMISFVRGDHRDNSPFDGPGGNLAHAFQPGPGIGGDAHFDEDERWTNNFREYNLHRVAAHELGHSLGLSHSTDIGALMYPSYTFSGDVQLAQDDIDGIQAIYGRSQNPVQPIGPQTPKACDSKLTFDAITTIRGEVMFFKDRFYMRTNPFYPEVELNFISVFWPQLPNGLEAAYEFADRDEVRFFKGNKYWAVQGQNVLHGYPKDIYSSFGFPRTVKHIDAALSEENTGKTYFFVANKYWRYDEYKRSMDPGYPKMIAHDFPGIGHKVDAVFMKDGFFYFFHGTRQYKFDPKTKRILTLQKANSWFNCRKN

inhibition of calcium ionophore induced betacellulin shedding (BTC ELISA) [1]: 67 % (at 15 µM) | inhibition of calcium ionophore induced betacellulin shedding (BTC ELISA) (% (at 1.5 µM)) [1]: 25 | inhibition of constitutive betacellulin shedding (BTC ELISA) [1]: 90 % (at 15 µM) | inhibition of constitutive betacellulin shedding (BTC ELISA) (% (at 1.5 µM)) [1]: 75
Substance: ADAM10 prodomain (betacellulin shedding assay, construct not specified)

inhibition of CD23 shedding in Ramos cells (soluble CD23 ELISA) [2]: 30% | inhibition of CD23 shedding in U937 cells (soluble CD23 ELISA) [2]: 30% | Ki [3]: 17 nM | Ki [4]: 36 nM | Ki [5]: > 3000 nM | Ki [6]: > 2000 nM | Ki [7]: > 2000 nM | Ki [8]: > 2000 nM | Ki [9]: > 2000 nM | Ki [10]: > 2000 nM | Ki [11]: > 2000 nM | Ki [12]: > 3000 nM | Ki [13]: > 1000 nM | Ki [14]: 1000 nM | Ki [15]: > 10 µM
Substance: C173S ProADAM 10 23-213 (C-terminal His tag) (from UniProt O35598 23-213)

prodomain inhibition of enzyme activity (percent) [16]: 0%
Substance: Pro ADAM 17 (mouse) (from UniProt Q9Z0F8 18-214)
